Laboratory results reported in patent US20170119790A1, “Agents, Uses and Methods” (CYTOGUIDE A/S, priority 2009, published 2017).

Tests used:
[1] = target: T1, CD163 on peripheral blood dendritic cells (Homo sapiens, UniProt Q86VB7); test: Flow cytometry of CD163 expression on peripheral blood dendritic cells; type: cell-based
T1 construct: Freshly drawn peripheral whole blood samples or PBMC; endogenous in cells; host or cells: human peripheral blood monocytes, blood dendritic cells, monocyte-derived macrophages (healthy donors, buffy coats)
Text: Freshly drawn peripheral whole blood samples (approx. 3×10^6 cells) were stained with isotype-matched control antibody (Mouse IgG1 PE, k isotype control, MOPC-21, BD Pharmingen™, San Diego, Calif., USA) or a relevant antibody (anti-CD3 FITC, UCHT1, BD Biosciences, San Diego, Calif., USA; anti-CD11c FITC, KB90, DAKO A/S, Glostrup, Denmark; anti-CD14 FITC, RM052, 10Tests®, Beckman and Coulter, Marseille, France; anti-CD16 FITC, 3G8, BD Biosciences, San Diego, Calif., USA; anti-CD19 FITC, SJ25C1, BD Biosciences, San Diego, Calif., USA; anti-CD20 FITC, CAT 13.6E12, Diatec.com A/S, Oslo, Norway; anti-CD56 FITC, NCAM16.2, BD Biosciences, San Diego, Calif., USA; anti-CD91 FITC, A2MR-a2, BD Biosciences, San Diego, Calif.; anti-HLA-DR FITC, EDU-1, Diatec.com A/S, Oslo, Norway; anti-CD163 PE, MAC2-158, IQ Products, Groningen, The Netherlands; anti-CD163 PE, GHI/61, BD Biosciences, CA, USA; anti-ILT3/CD85k PE-Cy5, ZM3.8, IOTests®, Beckman and Coulter, Marseille, France; anti-HLA-DR PerCP, L234, BD Biosciences, San Diego, Calif.; anti-CD4 APC, EDU-2, Diatec.com A/S, Oslo, Norway; anti-CD14 APC, 18D11, Diatec.com A/S, Oslo, Norway) for 15 minutes at room temperature in the dark. […] For CD163 density quantitation, flow cytometric estimation of antibodies bound/cell (ABCs) was performed using Quantibrite PE beads (Becton Dickinson, San Jose, Calif., USA) as recommended by the manufacturer. […]

[2] = target: T2, CD163 transfected Flp-In CHO cells (Homo sapiens, UniProt Q86VB7); test: Cellular binding and uptake (endocytosis) of 125I-labeled anti-CD163; type: cell-based
T2 construct: Stably transfected Chinese hamster ovary (CHO) cells expressing the full-length human CD163; expressed in transfected cells
Method: Monocytes were isolated from PBMC by negative selection using magnetic beads from Dynal (Dynabeads® MyPure™ Monocyte Kit 2; Invitrogen A/S, Taastrup, Denmark) according to instructions provided by the manufacturer. Monocyte preparations were more than 95% (CD14^+) pure determined by flow cytometry. The isolated cells were washed twice with phosphate-buffered saline. Monocyte-derived macrophages (MDMs) were prepared by cell culture of monocytes (approximately 1×10^7 cells) for 4 days in 5% CO2 and 37° C. in RPMI 1640 media (RPMI 1640+25 mM HEPES+I-glutamine) (Invitrogen Corporation, Carlsbad, Calif., USA) with 20% FCS containing 100 ng/ml of M-CSF. MDMs were then detached from the flask by incubation with cell dissociation buffer (Invitrogen A/S, Taastrup, Denmark) for 30 minutes at 4 °C, then flushed, and scraped. The cells were then cultured for 24 hours in RPMI 1640 media (RPMI 1640+25 mM HEPES+I-glutamine) (Invitrogen Corporation, Carlsbad, Calif., USA) supplemented with 20% FCS containing 100 ng/ml of M-CSF at 37° C. in 95% air and 5% CO2 in Lab-Tek™ Chamber Slides (Thermo Fisher Scientific, Roskilde, Denmark). 200 nM dexamethasone (Merck KGaA, Darmstadt, Germany) was added during culture to increase CD163 expression. Stably transfected Chinese hamster ovary (CHO) cells expressing the full-length human CD163, as described above, were cultured in serum-free CHO medium (HyQ-CCM, HyClone, Logan, Utah) containing 300 μg/ml Hygromycin B, as previously described (2).
Endocytosis of ^125I-labeled anti-CD163 was investigated in CD163 transfected Flp-In Chinese hamster ovary (CHO) cells and mock-transfected Flp-In as described (Madsen, M., Moller, H. J., Nielsen, M. J., Jacobsen, C., Graversen, J. H., van den Berg, T. and Moestrup, S. K. (2004) Molecular characterization of the haptoglobin.hemoglobin receptor CD163. Ligand binding properties of the scavenger receptor cysteine-rich domain region. J. Biol. Chem., 279, 51561-51567.)

T2 sequence (Q86VB7 42-1156): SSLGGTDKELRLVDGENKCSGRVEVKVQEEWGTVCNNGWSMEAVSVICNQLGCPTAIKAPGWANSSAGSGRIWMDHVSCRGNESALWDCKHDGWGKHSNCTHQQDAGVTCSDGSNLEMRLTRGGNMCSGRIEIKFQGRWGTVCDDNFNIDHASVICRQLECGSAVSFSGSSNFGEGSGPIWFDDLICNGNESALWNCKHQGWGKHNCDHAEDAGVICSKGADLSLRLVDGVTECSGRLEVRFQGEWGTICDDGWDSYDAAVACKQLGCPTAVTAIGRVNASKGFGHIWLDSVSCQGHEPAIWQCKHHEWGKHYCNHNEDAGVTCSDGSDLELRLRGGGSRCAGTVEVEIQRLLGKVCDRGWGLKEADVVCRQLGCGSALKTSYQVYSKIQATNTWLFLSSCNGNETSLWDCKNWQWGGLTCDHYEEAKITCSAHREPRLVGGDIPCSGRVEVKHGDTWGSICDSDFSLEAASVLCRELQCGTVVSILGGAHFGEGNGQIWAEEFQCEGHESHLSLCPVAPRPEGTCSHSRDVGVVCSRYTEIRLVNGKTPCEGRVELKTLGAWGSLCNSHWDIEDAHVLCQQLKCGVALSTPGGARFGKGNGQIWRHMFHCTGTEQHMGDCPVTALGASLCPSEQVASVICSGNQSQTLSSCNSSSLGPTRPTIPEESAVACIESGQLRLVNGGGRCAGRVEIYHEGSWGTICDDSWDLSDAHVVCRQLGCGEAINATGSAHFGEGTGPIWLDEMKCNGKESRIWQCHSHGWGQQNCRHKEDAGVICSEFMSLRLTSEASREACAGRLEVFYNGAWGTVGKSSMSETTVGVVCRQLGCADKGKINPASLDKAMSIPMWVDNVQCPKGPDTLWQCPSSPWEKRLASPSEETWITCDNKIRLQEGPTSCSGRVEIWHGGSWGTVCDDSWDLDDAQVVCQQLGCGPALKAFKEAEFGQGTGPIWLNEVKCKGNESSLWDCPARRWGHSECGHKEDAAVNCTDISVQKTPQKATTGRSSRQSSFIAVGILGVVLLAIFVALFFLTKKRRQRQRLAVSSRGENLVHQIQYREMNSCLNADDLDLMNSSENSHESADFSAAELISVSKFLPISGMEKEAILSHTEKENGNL
T1 sequence (Q86VB7 42-1156): as above

B1: MAC2-158: anti-human CD163 murine mAb, binds SRCR domain 1, IQ Products; VH SEQ ID NO: 1, VL SEQ ID NO: 2 (antibody, V domains shown)
VH: DVQLQESGPGLVKPSQSLSLTCTVTGYSITSDYAWNWIRQFPGNKLEWMGYITYSGITNYNPSLKSQISITRDTSKNQFFLQLNSVTTEDTATYYCVSGTYYFDYWGQGTTLTVSS
VL: SVVMTQTPKSLLISIGDRVTITCKASQSVSSDVAWFQQKPGQSPKPLIYYASNRYTGVPDRFTGSGYGTDFTFTISSVQAEDLAVYFCGQDYTSPRTFGGGTKLEIKRA
modifications: Mac2-158 VH; Mac2-158 VL
fraction of peripheral blood dendritic cells recognized (CD163 expressing) ([1]; CD14-ILT3+HLA-DR+ cells, whole blood): 32.3% | MFI, reflecting the amount of CD163 receptors per cell ([1]; peripheral blood dendritic cells): 107.5 | time course of cell-associated radioactivity (bound or internalized) ([2]; 125I-labelled mAb, increasing time points): did not reach a plateau | percentage of cell-associated radioactivity reached ([2]; 125I-labelled mAb, stable CD163 transfected Flp-In CHO cells): 61.27% | cellular uptake and binding to CD163-expressing cells ([2]; compared with the other tested antibodies, FIG. 5): considerably higher
